Among the data in publication PMC4383324 are stoichiometry N and Kd values, retold here.

Assay [1] concerns the target MyrNCS-1 His6 (N-terminally myristoylated NCS-1 with a carboxyl terminal His6-tag) (UniProt P62166). Briefly: SEC-MALS.
Assay [2] has the same target. Briefly: micro-batch multi-angle laser light scattering.
Assay [3] shares this target. In words: AUC.

In turn, “MyrNCS-1 His6 (N-terminally myristoylated NCS-1 with a carboxyl terminal His6-tag) (from UniProt P62166 1-190) (natural protein)” gave a stoichiometry N in assay [1] of 2. The Kd in assay [2] came out at 10 µM; in assay [3], 2 µM.
